From ChEMBL document CHEMBL1156528, “Acetyl-lysine analog peptides as mechanistic probes of protein deacetylases” (J Biol Chem, 2007)

Key:
[1] = substrate: CC(=O)NCCCC[C@H](NC(=O)CNC(=O)CNC(=O)[C@@H](NC(=O)[C@H](CO)NC(=O)[C@@H](N)CCCCN)[C@@H](C)O)C(=O)N[C@@H](C)C(=O)N1CCC[C@H]1C(=O)N[C@@H](CCCNC(=N)N)C(=O)N[C@@H](CCCCN)C(=O)N[C@@H](CCC(N)=O)C(=O)O; experiment: (§1) Activity of Saccharomyces cerevisiae Hst2
[2] = substrate: C[C@H](NC(=O)[C@H](CCCCNC(N)=O)NC(=O)CNC(=O)CNC(=O)[C@@H](NC(=O)[C@H](CO)NC(=O)[C@@H](N)CCCCN)[C@@H](C)O)C(=O)N1CCC[C@H]1C(=O)N[C@@H](CCCNC(=N)N)C(=O)N[C@@H](CCCCN)C(=O)N[C@@H](CCC(N)=O)C(=O)O; experiment: as §1

B1: NAD-dependent protein deacetylase HST2 (Saccharomyces cerevisiae S288c), P53686 (protein)
chain: MSVSTASTEMSVRKIAAHMKSNPNAKVIFMVGAGISTSCGIPDFRSPGTGLYHNLARLKLPYPEAVFDVDFFQSDPLPFYTLAKELYPGNFRPSKFHYLLKLFQDKDVLKRVYTQNIDTLERQAGVKDDLIIEAHGSFAHCHCIGCGKVYPPQVFKSKLAEHPIKDFVKCDVCGELVKPAIVFFGEDLPDSFSETWLNDSEWLREKITTSGKHPQQPLVIVVGTSLAVYPFASLPEEIPRKVKRVLCNLETVGDFKANKRPTDLIVHQYSDEFAEQLVEELGWQEDFEKILTAQGGMGDNSKEQLLEIVHDLENLSLDQSEHESADKKDKKLQRLNGHDSDEDGASNSSSSQKAAKE
[1]
  kcat: 0.2 s⁻¹
[2]
  Vmax: 1.3 s⁻¹
  kcat: 1.2 ×10⁻² /s
